% cells with OSER data for eight substances are collected here from patent US20250282835A1.

What all share (experiment): cell-based or functional assay
For assay [1], the target named is Cyterm-TagRFP-T.
Assay [2] deals with CytERm-mScarlet-I3.
For assay [3], the target named is Cyterm-mScarlet.
In assay [4] the target is Cyterm fusion: dTomato.
Assay [5] addresses CytERm-mScarlet3.
Assay [6] deals with Cyterm fusion: mEGFP.
Assay [7] addresses Cyterm-mScarlet-I.
Assay [8] addresses Cyterm-mCherry.

For the substance Cyterm-TagRFP-T, in assay [1], the % cells with OSER was 64%.

In assay [2], CytERm-mScarlet-I3 came in with a % cells with OSER of 5%.

In assay [3], Cyterm-mScarlet gave a % cells with OSER of 8%.

Take Cyterm fusion: dTomato: the % cells with OSER in assay [4] was found to be 82%.

In the case of CytERm-mScarlet3, the % cells with OSER in assay [5] is 7%.

Cyterm fusion: mEGFP: the % cells with OSER in assay [6] came out at 11%.

In assay [7], Cyterm-mScarlet-I showed a % cells with OSER of 8%.

Regarding Cyterm-mCherry, the % cells with OSER in assay [8] was determined as 18%.
